Assay results as given in the nanobody polyreactivity screen of Harvey et al. (2022).

Test: yeast display, Sf9 membrane polyspecificity reagent, FACS + sequencing; frameworks hold sequencing errors
How it was run: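 Sorting gates, low and high (top ~1%), were placed on anti-HA fluorescence to track expression and on streptavidin fluorescence to track reagent binding. A clone's polyreactivity label is taken from the gate it came out of. The reagent was 10% biotinylated, detergent-solubilized Sf9 membrane, applied for 1 hour at 4 °C to galactose-induced yeast display cells.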

| Sequence | polyreactivity (PSR sort gate) |
| --- | --- |
| QVQLVESGGGLVQSGGSLRLSGAASGSTYGLNAMGWYRQAPRKEMELVAAITRSDITNYADSVNGRFRISRDNAKNTVYLQMNSLKPEDTAVYYCNKTPDRHRRYFGYGYWGQGTQVTVSS | low polyreactivity |
| QVQLVESGGGLVQAGGSLRLICAASGSTFKRYAMGWYRPAPGNERELVAAISSTGGSTFYADSVKGRFTISRDIAKYTVYLQMNSLKREDTAVYYCKKYRATNSARDYWGQGTQVTVSS | high polyreactivity |
| QVQLVESGGGLVQAGGSLRLSCAASGRITFSHNTMGGSRQAPGKERELVAAISSGGRTNYADSVKGRFTISRDNAKNTVYLQMNSLKPEDTAVYYCARESHYDFIYDGMDYWGQGTQVTVSS | low polyreactivity |
| QVQLVESGGGLVQAGGSLRLSCAASGLTFDWYAMGWYRQAPGKERELVAAITSVGSTYYADSVKGRFTISRDNAKNTVYLQMNSLKPEDTAVYYCAVEGVMWSFWPYEYWGQGTQVTVSS | high polyreactivity |
| QVQLVESGGGLVQAGGSLRLSCAASGSIFSRYAMGWYRQAPGTERELVAAITSSGTSTYYADSVKGRFTISRDNAKNTVYLQMNSLKPEDTAVYYCAAAFRQRTSRYDYWGQGTQVTVSS | high polyreactivity |
| QVQLQESGSGLVQAGGSLRLSCAASGAIFPAYLMGWYRQPPGKERELVAGISYGSITYCADSVKGRFNISRDNAKNTVYLQMNSLKPEDTAVYYCAVWRPGGDEYYYWGQGTQVTVSS | low polyreactivity |
| QVQLVETGGGLVQAGGSLRLSCAASGNTFHSNAMGCYSQAPGKERELVAAITPSDGDPYYADSVKGRFTISRDNAKNTVYLQMNSLKPEDTAVYYCAAEDDPGEYEYWGQGTQVTVSS | low polyreactivity |
| QVQLVESGGGLVQAGGRLRLSCAASGSIFSRYAMGWYRQAPGKERELVAAITSRGSGTNYADSVKGRFTISRDNAKNTVYLQMNSLKPEDTAVYYCNAARLPRLGWPTPYLYDYWGQGTQVTVSS | high polyreactivity |
| QVQLVESGGGLVQAGGSLSLSCAASGFIFYRYAMGWYRQAPGKERELVAGISSRGGSTYYADSVKGRFTISRDNAKNTVYLQMNSLKPEDTAVYYCAKRPLTSNASQGDYWGQGTQVTVSS | high polyreactivity |
| QVQLVESGGGLVQAGGSLRLSCAASGFTINFYGMGWYRQAPGKERELVAAITASGGGSTYYADSVKGRFTISRDNAKNTVYLQMNSLKPEDTAVYYCNADYTGSFYTYDYWGQGTQVTVSS | low polyreactivity |
| QVPLVESGGGLVQAGGSLRLSCAASGGIFRLYAMGWYRLAPGKEREVVASLSGDGDSTYYADSVQGRFTISRDNAKNTVYLQMNSLKPEDTAVYYCARQPYYFLSRPPYFRKYYYWGQGTQVTVSS | high polyreactivity |
| QVQLVESGGGLVQAGGSLRLSCAASGSIFLKYAMGWYRQAPGKERELVATISRGGSTNYADSVKGRFTISRDNAKNTVYLQMNSLKPEDTAVYYCAAKYGRPYGTYGYKSLLVGDMYYWGQGTQVTVSS | high polyreactivity |
| QVQLVESGGGLVQAGGSLRLSCAASGSTFVRNAMGWYRQAPGKERELVAAISRSGGRTYYADSVKGRFTISRDNAKNTVYLQMNSLKPEDTAVYYCAKKRSKPISFDYWGQGTQVTVSS | high polyreactivity |
| QVQLVESGGGLVQARGSLRLSCAASGRTLTYNAMGWYRPAPGKERELVAVISSRGDTTYYADSVKGRFTISRDNAKNTVYLQRNSLKPEDTAVYFCNSALSGRRSYYYWGQGTQVTVSS | low polyreactivity |
| QVQLVESGGGLVQAGGSLRLSCAASGRIFWVYAMGWYRQAPGKERELVAAISSTGDGTYYADSVKGRFTISRDNAKNTVYLQMNSLKPVDTAVYYCAADFRVARSPLSGGSDYWGQGTQVTVSS | low polyreactivity |
| QVQLVESGGGLVQAGGSLRLSCAASGRIFGFYAMGWYRQAPGKERELVAAISSRGGRTYYADSVKGRFTISRDNAKNTVYLQMNSLKPEDTAVYYCAAGDGKYGRDGDYWGQGTQVTVSS | high polyreactivity |
| QVQLVESGGGLVQAGGSLRLSCAASGSIFYNYGMGWYRQAAGKEGELVAAIRASGDSTYYADSVKGRFTISRDNAKNTLYLQINSQKPEDTAVYYCAARPNQSYNGLYYYWGQGTQVTVSS | low polyreactivity |
| QVQLVESGGGLVQAGGSLRLSCAASGSTLVLNAMGWYRPATGKERELVAAITISGDTTYYADSVKGRFTISRDNAKNTVYLQMNCLKPEDTAVYYCAAVVSTVDCMEYWGQGTQVTVSS | low polyreactivity |
| QVQLVESGGGLVQAGGSLRLSCAASGRTFIWNAMGWYRQAPGKERELVADISIRGGSTNYADSVKGRFTISRDNAKNTVYFQMNSLKPEDTAVYYCAAEYYDSGNDYWGQGTQVTVSS | low polyreactivity |
| QVQLVESGGGLVPARGSLRLSWAASGSTFSLYAMGWYRQAPGKERELVAAISWSGGNTYYADSVKGRFTISRDNAKNTVYLQMNSLKPEDTAVYYCAAEGKTFHRYYLYSYDYWGQGTQVTVSS | high polyreactivity |
| QVQLVESGGGLVQAGGSLRLSCAASGSISYRYDKGWYRQAPGKEMELVATIRSGGSTNYADSVKGRFTISRDTAKNTVYLQMNSLKPEDTAVYYGAARLYARKKLHFSADSDYWGQGTQVTVSS | low polyreactivity |
| QVQLVESGGGLVQAGGSLRLSCAASGLTFSSYTMGWYRQAHGKERELVAAINWNGGDTYYADSVKGRFTISRDNAKNTVYLQMHSLKPEDTAVYYCNADYPYFYRFTAEYDYCGQGTQVTVSS | low polyreactivity |

| Sequence | polyreactivity (PSR sort gate) |
| --- | --- |
| QVQLVESGGGLVQAGGSLRLSCAASGSTFFRYAMGWYRQAPGKERELVAAISYSGDSTYYADSVKGRFTISRDNAKNTVDLQMNSLKPEDTAVYYCNAVYFRYRYNYWGQGTQVTVSS | high polyreactivity |
| QVQLVESGGGLVQAGGSLRLSCAASGFTFGQYAMGWYRQAPGKERELVAAIRWSGGSSYYADSVKGRFTISRDNAKNTVYLQMNSLKPEDTAVYYCAARRFDGYEYDYWGQGTQVTVSS | low polyreactivity |
| QVQLVESGGGLVQAGGSLRLSCAASGFTFTIYTMGWYRQAPGKERELVAAISRRGGSTYYADSVKGRFTISRDNAKNTVYLQMNSLNPEDTAVYYCAAYVPQGYKLYYWGQGTQVTGSS | high polyreactivity |
| QVQLVESGGGLVQAGGSLRLSCAASGYILWNAMGCYRQAPGKDRELVAAISSGGSTNYADSVKGRFTISRDNAKNTVYLQMNSLKPEDTAVYYCNTDRFWPSDYWGQGTQVTVSS | low polyreactivity |
| QVQLVESGGGLVQAGGSLRLSCAASGSIYWYAMGWYTQAPGKERELVAAITKSGSSTYYADSVKGRFTISRDNANNTVYLQMNSLIPEDTAVYYCAARRAVSGGVRMYYWGQGTQVTVSS | high polyreactivity |
| QVQLVESGGGLVQAGGSLRLSCAASGSTFYPTYAMGWYRQAPGKERELVATITGSGGSTYYADSVKGRFTISRDNAKNTVYLQMNSLKPEDTAVYYCAADRWYSRYTRYGYWGQGTQVTVSS | low polyreactivity |
| QVQLVESGGGLVQAGGSLRLSCAASGIILPWNAMGWYRQAPGKERELVAAISWSGTSTYYADSVQGRFTISRDNAKNTVYLQMNSLKPEDTAVYYCAAAYWWSWRYDYWGQGTQVTVSS | low polyreactivity |
| QVQLVESGGGLVQAGGSLRLSCAASGRIFKTNAMGWYRQAPGKERELVAAISRSGSRTSYADSVKGRFTISRDNAKNTVYLQMNSLKPEDTAVYYCATRGLYWKVGYWGQGTQVTVSS | high polyreactivity |
| QVQLVESGGGLVQAGGSLRLSCAASGFTFWYYAMGWYRQAPGKERELVAAISRSGTSTYYADSVKGRFTISRDNAKNTVFLQMNCLKPEDSAVYYCNVLRVNSITYLMDYWVQGTQVTVSS | high polyreactivity |
| QVQLVESGGGLVQAGGSLRLSCAASGSTFHTYVMGWYRQAPGKERELVASISSGGSTYYADSVKGRFTISRDNAKNTVSLQMNSLKPEDTAVYYCAAGYPYYWHFDYWGQGSQVTVSS | low polyreactivity |
| QVQLVESGGGLVQAGGSLRLSCAASGRTFLEKAMGWYRPAPGKEREFVAANTYSSGSTFYADSVKGRFTISRDNAKNTVYLQMNSLKPEDTAVYYCAARFWYRHARWYDYWGQGTQVTVSS | high polyreactivity |
| QVQLVESGGGLVQAGGTHRLSCSASGFIFCKYAMGWYRQAPGKERELVAVITRSGSRTYYADSVKGRFTISRDNAKNTVYLQMNSLKPEDTAVYYCATENVYAYDYWGQGTQVTVSS | high polyreactivity |
| QVQLVESGGGLVQAGGSLRLSCAASGFTFRGYDMGWYRQAPGKERELVATISSGGRTYYADSVKGRFTISRDNAKNTVYLQMNSLKPEDTAVYYCAAPRFGRLAFDFWGQGSQVTVSS | low polyreactivity |
| QVQLVDSGGGLVQAGGSLRLSCAASGSIFHANAMGWYRQAPGKERELVAVISQGGGSTYYADSVKGRFTISRDNAKNTVYLQMNSLKPEDTAVYYCAAYYYYSAYGDDYWGQGTQVTVSS | high polyreactivity |
| QVQLVESGGRLVQAGGSLRLSCAASGYTFGSYPMGWYRQAPGNERELVAAISGGGSTNYADSVKGRFTISRDNAKNTVYLQMNSMKPEDTAVYYCAAYPYVYQLRVEEYDHWGQGTQVTVSS | low polyreactivity |
| QVQLVESGGGLVQAGGSLRLSCAASGYTFGYYAMGWYRQAPGKERELVAAISWRGARTNYADSVKGRFTISRDNAKNTVYLQMNSLKPEDTAVYYCAAGYYYGYPPRDYWGQGTQVTVSS | high polyreactivity |
| QVQLVESGGGLVQAGGSLRISCAASGFTFSRNVMGWYRQAPGKERELVADITLSGASTYYADSVKGRFTISRDNAKNTVYLQMNSLNPEDTAGYYCAADPYLWRWGWRHDYWGQGTQVTVSS | low polyreactivity |
| QVQLVESGGGLVQAGGSLRLSCAASGIIFLTNAMGWSRPAPAKERELVAAITAIGGSTYYADSVKGRFTISRDNAKNTVYLQMNSLKPEDTAVYYCAADFSYVYYLYDYWGQGTQVTVSS | low polyreactivity |
| QVQLVESGGGLVQAGGSLRLSCAASGSIYSNAMGWYRQAPGKERELVAAISRTGGSTYYADSVKGLFTISRDNAKITVYLQMNSLKPEDTAVYYCAVSAWTRSHALYYWGQGTQVTVSS | high polyreactivity |
| QVQVVESGGGLVQAGGSLRLSCAASGRTFVSYAMGWYRQATGKERELVAAISSSGGRTYYADSVKGRFTISRDNAMNTVYLQMNSLKPEDTAVYYCYAVRFISARYDYWGQGTQVTVSS | high polyreactivity |
| QVQLVESGGGLVQAGGSLRLSCAASGFILYYYAMGWYRQAPGKERELVASISRRGGSTYYADSVKGRFTISRDNAKNTVYLQMNSLKPEDTAVYYCAATETTSRRFGYDYWGQGTQVTVSS | high polyreactivity |
